Test results published in publication PMC10692919.

Target: BMPs (in the Hep3B hepcidin bioassay)

IC50 of suppression of hepcidin mRNA (qPCR) in Hep3B cells: 10 nM
B1: Full-length ERFE ΔCollagen, 43-354 del109-125, FLAG-tagged (natural protein)
chain: EPPPGNELPRGPGESRAGPAARPPEPTAERAHSVDPRDAWMLFVRQSDKGVNGKKRSRGKAKKLKFIIPPEALLKEFQLLLKGAVRQRERAEPEPCTCGPAGPVAASLAPVSATAGEDDDDVVGDVLALLAAPLAPGPRAPRVEAAFLCRLRRDALVERRALHELGVYYLPDAEGAFRRGPGLNLTSGQYRAPVAGFYALAATLHVALGEPPRRGPPRPRDHLRLLICIQSRCQRNASLEAIMGLESSSELFTISVNGVLYLQMGQWTSVFLDNASGCSLTVRSGSHFSAVLLGV
